{"source": "the supplement of paper PMC10899765", "data": [{"tested_on": "MCF10A", "experiment": "percent viability (nuclei count relative to siNT); higher = more viable cells", "conditions": "20 nM; 72 h", "protocol": "(§1)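 After 72 h, cells were fixed and stained with Hoechst and anti-fibrillarin, and nucleoli per nucleus were counted with CellProfiler. Values are plate-adjusted percent effect for the one-nucleolus and 5+ nucleoli phenotypes, normalised to siNT (0%) and to the positive controls siNOL11 or siKIF11 (100%), as the mean of biological triplicates. Percent viability is the nuclei count relative to siNT.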", "units": {"percent viability": "%"}, "values": [{"sequence": "AAGGGGGAAGGAAACAUGGAGA [hsa-miR-4716-3p]", "percent viability": 21.3}, {"sequence": "UGGCGAUUUUGGAACUCAAUGGCA [hsa-miR-8053]", "percent viability": 36.7}, {"sequence": "ACCCGCCCGUCUCCCCACAG [hsa-miR-7108-3p]", "percent viability": 110}, {"sequence": "GGUGGGAUGGAGAGAAGGUAUGAG [hsa-miR-4769-5p]", "percent viability": 77.6}, {"sequence": "AGCCAAGUGGAAGUUACUUUA [hsa-miR-4480]", "percent viability": 21.9}, {"sequence": "AUCUGGAGGUAAGAAGCACUUU [hsa-miR-516b-5p]", "percent viability": 61.6}, {"sequence": "CACUGUGUCCUUUCUGCGUAG [hsa-miR-892a]", "percent viability": 57.7}, {"sequence": "AGGAAUGUUCCUUCUUUGCC [hsa-miR-613]", "percent viability": 44.4}, {"sequence": "AGCUGAGCUCCAUGGACGUGCAGU [hsa-miR-4663]", "percent viability": 67}, {"sequence": "UGUGCAAAUCCAUGCAAAACUGA [hsa-miR-19b-3p]", "percent viability": 82.4}, {"sequence": "CUUAGACUGCCAGACUCCCUGA [hsa-miR-7702]", "percent viability": 163}, {"sequence": "UAAAUUUCACCUUUCUGAGAAGG [hsa-miR-513a-3p]", "percent viability": 49}, {"sequence": "UUGUCUCUUGUUCCUCACACAG [hsa-miR-6818-3p]", "percent viability": 57.7}, {"sequence": "AUUCCUAGAAAUUGUUCAUA [hsa-miR-384]", "percent viability": 107}, {"sequence": "UGGGUCUUUGCGGGCGAGAUGA [hsa-miR-193a-5p]", "percent viability": 40.4}, {"sequence": "GACUGACACCUCUUUGGGUGAA [hsa-miR-888-3p]", "percent viability": 84.1}, {"sequence": "UCGGGGCAUGGGGGAGGGAGGCUGG [hsa-miR-6775-5p]", "percent viability": 57.8}, {"sequence": "ACUGCCCCAGGUGCUGCUGG [hsa-miR-324-3p]", "percent viability": 68}, {"sequence": "UCGAGGAGCUCACAGUCU [hsa-miR-151b]", "percent viability": 57.3}, {"sequence": "UCUGCUCAUACCCCAUGGUUUCU [hsa-miR-767-3p]", "percent viability": 129}, {"sequence": "UGCCCCAUCUGUGCCCUGGGUAGGA [hsa-miR-3189-5p]", "percent viability": 52.5}, {"sequence": "CUGCAGAGUUUGUACGGACCGG [hsa-miR-3678-3p]", "percent viability": 66.6}, {"sequence": "UCAGGCAAAGGGAUAUUUACAGA [hsa-miR-4742-5p]", "percent viability": 45.1}, {"sequence": "GUCCAGUUUUCCCAGGAAUCCCU [hsa-miR-145-5p]", "percent viability": 70.4}, {"sequence": "UAUUGCACUUGUCCCGGCCUGU [hsa-miR-92a-3p]", "percent viability": 88.8}, {"sequence": "CCACUUGGAUCUGAAGGCUGCCC [hsa-miR-3614-5p]", "percent viability": 32.9}, {"sequence": "UGCUUAAGUUGUACCAAGUAU [hsa-miR-4720-3p]", "percent viability": 53.4}, {"sequence": "AAUAGCUCAGAAUGUCAGUUCUG [hsa-miR-7705]", "percent viability": 71.2}, {"sequence": "CCUGGUGGCUUCCUUUU [hsa-miR-4456]", "percent viability": 23.6}, {"sequence": "UGGGAACGGGUUCCGGCAGACGCUG [hsa-miR-1292-5p]", "percent viability": 60.3}, {"sequence": "GUUCUGUUAACCCAUCCCCUCA [hsa-miR-4652-3p]", "percent viability": 28.2}, {"sequence": "AGACCCUGGUCUGCACUCUAUC [hsa-miR-504]", "percent viability": 64.6}, {"sequence": "AUUGUUCUGUCUUUCUCCCAG [hsa-miR-6739-3p]", "percent viability": 27.3}, {"sequence": "AAAGUCUCGCUCUCUGCCCCUCA [hsa-miR-3184-3p]", "percent viability": 172}, {"sequence": "UGGGUGGAAGAAGGUCUGGUU [hsa-miR-6745]", "percent viability": 6.73}, {"sequence": "GAGCCCCUCUCUGCUCUCCAG [hsa-miR-6769a-3p]", "percent viability": 92.9}, {"sequence": "CAUCUGGGCAACUGACUGAAC [hsa-miR-1298-3p]", "percent viability": 7.06}, {"sequence": "UCCUACGCUGCUCUCUCACUCC [hsa-miR-6761-3p]", "percent viability": 43.5}, {"sequence": "CGGCGCGACCGGCCCGGGG [hsa-miR-4634]", "percent viability": 71.2}, {"sequence": "UCCCCCAGGUGUGAUUCUGAUUU [hsa-miR-361-3p]", "percent viability": 74.8}, {"sequence": "GUAGGGGCGUCCCGGGCGCGCGGG [hsa-miR-6789-5p]", "percent viability": 77.1}, {"sequence": "UAGCAGCGGGAACAGUUCUGCAG [hsa-miR-503-5p]", "percent viability": 29.1}, {"sequence": "UCGGCCUGGGGAGGAGGAAGGG [hsa-miR-7107-5p]", "percent viability": 77.4}, {"sequence": "CCUCCUGCCCUCCUUGCUGU [hsa-miR-1976]", "percent viability": 79.5}, {"sequence": "CACUGCAGGACUCAGCAG [hsa-miR-4418]", "percent viability": 55.1}, {"sequence": "GUGAACGGGCGCCAUCCCGAGG [hsa-miR-887]", "percent viability": 73.2}, {"sequence": "CCAGUCCUGUGCCUGCCGCCU [hsa-miR-1910]", "percent viability": 100}, {"sequence": "AGGUUGCCUGUGAGGUGUUCA [hsa-miR-656-5p]", "percent viability": 17.5}, {"sequence": "AGGCAUUGACUUCUCACUAGCU [hsa-miR-1256]", "percent viability": 32.9}, {"sequence": "UACUGCAUCAGGAACUGAUUGGA [hsa-miR-217]", "percent viability": 62.9}, {"sequence": "UGGGAAAGAGAAAGAACAAGUA [hsa-miR-6739-5p]", "percent viability": 51.5}, {"sequence": "CUUUUUGCGGUCUGGGCUUGC [hsa-miR-129-5p]", "percent viability": 39.8}, {"sequence": "UGGAUGUGGAAGGAGUUAUCU [hsa-miR-4764-5p]", "percent viability": 7.49}, {"sequence": "UGACAGCGCCCUGCCUGGCUC [hsa-miR-2277-3p]", "percent viability": 79}, {"sequence": "CAGGGAAAUGGGAAGAACUAGA [hsa-miR-5584-5p]", "percent viability": 53.3}, {"sequence": "ACUCGGCUGCGGUGGACAAGU [hsa-miR-4638-5p]", "percent viability": 39.5}, {"sequence": "CCAGGAGAUCCAGAGAGAAU [hsa-miR-4768-3p]", "percent viability": 32.6}, {"sequence": "GGUCGUAUGUGUGACGCCAUUU [hsa-miR-489-5p]", "percent viability": 63}, {"sequence": "CAGUUCAGAAGUGUUCCUGAGU [hsa-miR-5000-5p]", "percent viability": 32.3}]}, {"tested_on": "MCF10A", "experiment": "5+ nucleoli phenotype percent effect (relative to siNT 0% and siKIF11 100%); higher = more cells with five or more nucleoli", "conditions": "20 nM; 72 h", "protocol": "as §1", "units": {"5+ nucleoli phenotype percent effect": "%"}, "values": [{"sequence": "AAGGGGGAAGGAAACAUGGAGA [hsa-miR-4716-3p]", "5+ nucleoli phenotype percent effect": -6.04}, {"sequence": "UGGCGAUUUUGGAACUCAAUGGCA [hsa-miR-8053]", "5+ nucleoli phenotype percent effect": 6.04}, {"sequence": "ACCCGCCCGUCUCCCCACAG [hsa-miR-7108-3p]", "5+ nucleoli phenotype percent effect": 28.2}, {"sequence": "GGUGGGAUGGAGAGAAGGUAUGAG [hsa-miR-4769-5p]", "5+ nucleoli phenotype percent effect": 33.7}, {"sequence": "AGCCAAGUGGAAGUUACUUUA [hsa-miR-4480]", "5+ nucleoli phenotype percent effect": -37.2}, {"sequence": "AUCUGGAGGUAAGAAGCACUUU [hsa-miR-516b-5p]", "5+ nucleoli phenotype percent effect": 48.7}, {"sequence": "CACUGUGUCCUUUCUGCGUAG [hsa-miR-892a]", "5+ nucleoli phenotype percent effect": -27.3}, {"sequence": "AGGAAUGUUCCUUCUUUGCC [hsa-miR-613]", "5+ nucleoli phenotype percent effect": -37.9}, {"sequence": "AGCUGAGCUCCAUGGACGUGCAGU [hsa-miR-4663]", "5+ nucleoli phenotype percent effect": 16.3}, {"sequence": "UGUGCAAAUCCAUGCAAAACUGA [hsa-miR-19b-3p]", "5+ nucleoli phenotype percent effect": -2.64}, {"sequence": "CUUAGACUGCCAGACUCCCUGA [hsa-miR-7702]", "5+ nucleoli phenotype percent effect": 59.3}, {"sequence": "UAAAUUUCACCUUUCUGAGAAGG [hsa-miR-513a-3p]", "5+ nucleoli phenotype percent effect": -3.52}, {"sequence": "UUGUCUCUUGUUCCUCACACAG [hsa-miR-6818-3p]", "5+ nucleoli phenotype percent effect": 16.4}, {"sequence": "AUUCCUAGAAAUUGUUCAUA [hsa-miR-384]", "5+ nucleoli phenotype percent effect": 23.8}, {"sequence": "UGGGUCUUUGCGGGCGAGAUGA [hsa-miR-193a-5p]", "5+ nucleoli phenotype percent effect": -18.7}, {"sequence": "GACUGACACCUCUUUGGGUGAA [hsa-miR-888-3p]", "5+ nucleoli phenotype percent effect": 8.85}, {"sequence": "UCGGGGCAUGGGGGAGGGAGGCUGG [hsa-miR-6775-5p]", "5+ nucleoli phenotype percent effect": 35.1}, {"sequence": "ACUGCCCCAGGUGCUGCUGG [hsa-miR-324-3p]", "5+ nucleoli phenotype percent effect": 37.7}, {"sequence": "UCGAGGAGCUCACAGUCU [hsa-miR-151b]", "5+ nucleoli phenotype percent effect": 10.8}, {"sequence": "UCUGCUCAUACCCCAUGGUUUCU [hsa-miR-767-3p]", "5+ nucleoli phenotype percent effect": 54.2}, {"sequence": "UGCCCCAUCUGUGCCCUGGGUAGGA [hsa-miR-3189-5p]", "5+ nucleoli phenotype percent effect": 42.8}, {"sequence": "CUGCAGAGUUUGUACGGACCGG [hsa-miR-3678-3p]", "5+ nucleoli phenotype percent effect": -37.4}, {"sequence": "UCAGGCAAAGGGAUAUUUACAGA [hsa-miR-4742-5p]", "5+ nucleoli phenotype percent effect": 6.44}, {"sequence": "GUCCAGUUUUCCCAGGAAUCCCU [hsa-miR-145-5p]", "5+ nucleoli phenotype percent effect": -1.55}, {"sequence": "UAUUGCACUUGUCCCGGCCUGU [hsa-miR-92a-3p]", "5+ nucleoli phenotype percent effect": 4.47}, {"sequence": "CCACUUGGAUCUGAAGGCUGCCC [hsa-miR-3614-5p]", "5+ nucleoli phenotype percent effect": -32.4}, {"sequence": "UGCUUAAGUUGUACCAAGUAU [hsa-miR-4720-3p]", "5+ nucleoli phenotype percent effect": -20.7}, {"sequence": "AAUAGCUCAGAAUGUCAGUUCUG [hsa-miR-7705]", "5+ nucleoli phenotype percent effect": -21.4}, {"sequence": "CCUGGUGGCUUCCUUUU [hsa-miR-4456]", "5+ nucleoli phenotype percent effect": -4.84}]}]}
